Consider five molecules from paper PMC4703388, “Conformational Sampling and Binding Site Assessment of Suppression of Tumorigenicity 2 Ectodomain” (PLoS ONE, 2016).

The Kd is the concentration at which binding is half-saturated. For orientation: koff means the first-order rate constant of dissociation. As a reminder, the kon is the second-order rate constant of association.

B2: IL-33 (residues 112-270) (ligand, UniProt O95760 112-270, looked up)
chain: SITGISPITEYLASLSTYNDQSITFALEDESYEIYVEDLKKDEKKDKVLLSYYESQHPSNESGDGVDGKMLMVTLSPTKDFWLHANNKEHSVELHKCEKPLPDQAFFVLHNMHSNCVSFECKTDPGVFIGVKDNHLALIKVDSSENLCTENILFKLSET
notes: Interleukin-33, residues 112-270; Used unlabelled as the analyte in BLI; source: E. coli Rosetta2 (DE3), purified (Ni-NTA, TEV cleavage, second Ni-NTA, Superdex 75); not shown: His6, N-terminal, cleaved

Read-outs that look alike come from different tables or passages of the source.

One assay addresses IL-33 (Homo sapiens) (UniProt O95760). Put plainly: ITC. The note with it: cited from earlier work.
A further assay addresses IL-1α (Homo sapiens) (UniProt P01583). The note with it: cited from earlier work.
In a further assay the target is IL-1Ra (Homo sapiens) (UniProt P18510). The note with it: cited from earlier work.
Chain of IL-1Ra (Homo sapiens) (P18510 26-177): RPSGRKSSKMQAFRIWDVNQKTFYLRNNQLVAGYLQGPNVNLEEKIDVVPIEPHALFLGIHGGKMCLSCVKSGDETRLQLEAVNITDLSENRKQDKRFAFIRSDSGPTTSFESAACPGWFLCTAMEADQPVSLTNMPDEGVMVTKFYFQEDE
Assay [1] concerns the target IL-1β (Homo sapiens) (UniProt P01584). The note with it: cited from earlier work.
For assay [2] the target is unchanged. The note with it: cited from earlier work. The source holds these as a separate data set.
The assay “IL-33 (residues 112-270)” has as its target B2. Put plainly: BLI; OctetRED96; biotinylated ST2 loaded on streptavidin sensors (20 ug/mL, 10 min), serial dilutions of IL-33 in solution; 25 C; 10 mM HEPES pH 7.5, 150 mM NaCl, 0.005% Tween 20, 100 uM EDTA; 1:1 binding model, KD calculated from kon and koff. The note with it: both partners purified.
In assay [3] the target is ST2 D1-D2 domain (sequence 19-206) (UniProt Q01638 19-206, biotinylated with Biotin-PEO4 linker (equimolar ratio)). Described as above. The note with it: both partners purified.

Chain of IL-1β (Homo sapiens) (P01584 117-269): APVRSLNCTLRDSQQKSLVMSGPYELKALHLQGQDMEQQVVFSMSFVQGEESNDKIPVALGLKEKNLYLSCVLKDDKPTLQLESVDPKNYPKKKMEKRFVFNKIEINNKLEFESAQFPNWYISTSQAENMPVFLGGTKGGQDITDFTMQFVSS
Chain of IL-1α (Homo sapiens) (P01583 113-271): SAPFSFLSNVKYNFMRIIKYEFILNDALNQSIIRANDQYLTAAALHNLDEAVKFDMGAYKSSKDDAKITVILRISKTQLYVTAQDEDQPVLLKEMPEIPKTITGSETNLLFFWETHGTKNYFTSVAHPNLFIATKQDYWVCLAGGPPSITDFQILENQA

In the case of ST2 ECD (from UniProt Q01638), the Kd with IL-33 (Homo sapiens) is 5 nM.
With IL-1R1 D1-D2 (from UniProt P14778), the Kd is 7000 nM with IL-1α (Homo sapiens), 28 nM with IL-1Ra (Homo sapiens) and over 10000 nM in the assay with IL-1β (Homo sapiens) [1].
As for IL-1R1 D1-D3 (from UniProt P14778), in the assay with IL-1β (Homo sapiens) [2], the dissociation constant Kd was 2 nM.

B1: ST2 ectodomain, D1-D3 domains (sequence 19-323) (domain or fragment)
chain: KFSKQSWGLENEALIVRCPRQGKPSYTVDWYYSQTNKSIPTQERNRVFASGQLLKFLPAAVADSGIYTCIVRSPTFNRTGYANVTIYKKQSDCNVPDYLMYSTVSGSEKNSKIYCPTIDLYNWTAPLEWFKNCQALQGSRYRAHKSFLVIDNVMTEDAGDYTCKFIHNENGANYSVTATRSFTVKDEQGFSLFPVIGAPAQNEIKEVEIGKNANLTCSACFGKGTQFLAAVLWQLNGTKITDFGEPRIQQEEGQNQSFSNGLACLDMVLRIADVKEEDLLLQYDCLALNLHGLRRHTVRLSRKNP
modifications: biotinylated with Biotin-PEO4 linker (equimolar ratio)
Regarding B1, in the assay with IL-33 (residues 112-270), the equilibrium dissociation constant (Kd) is 2.23 nM, the koff was 0.00115 s⁻¹ and the kon was 516000 M⁻¹ s⁻¹.
Consider B2, for which, in assay [3], the Kd is 65.1 nM, the koff was 0.215 s⁻¹ and the kon is 3.3e+06 M⁻¹ s⁻¹.
